Sequences and labels used below:
B1: IgG1-F1262 (antibody)
heavy: QVQLQESGPGLVKPSETLSLTCAVSGHSISHDHAWSWVRQPPGEGLEWIGFISYSGITNYNPSLQGRVTISRDNSKNTLYLQMNSLRAEDTAVYYCARSLARTTAMDYWGEGTLVTVSSASTKGPSVFPLAPSSKSTSGGTAALGCLVKDYFPEPVTVSWNSGALTSGVHTFPAVLQSSGLYSLSSVVTVPSSSLGTQTYICNVNHKPSNTKVDKKVEPKSCDKTHTCPPCPAPELRGGPKVFLFPPKPKDTLYISRTPEVTCVVVDVSHEDPEVKFNWYVDGVEVHNAKTKPREEQYNSTYRVVSVLTVLHQDWLNGKEYKCKVSNKALPAPIEKTISKAKGQPREPQVYTLPPSRDELTKNQVSLTCLVKGFYPSDIAVEWESNGQPENNYKTTPPVLDSDGSFFLYSKLTVDKSRWQQGNVFSCSVMHEALHYHVTKKELSLSP
light: not shown
notes: EU numbering; copies: 2 + 2
B2: IgG1-F1178 (antibody)
heavy: QVQLQESGPGLVKPSETLSLTCAVSGHSISHDHAWSWVRQPPGEGLEWIGFISYSGITNYNPSLQGRVTISRDNSKNTLYLQMNSLRAEDTAVYYCARSLARTTAMDYWGEGTLVTVSSASTKGPSVFPLAPSSKSTSGGTAALGCLVKDYFPEPVTVSWNSGALTSGVHTFPAVLQSSGLYSLSSVVTVPSSSLGTQTYICNVNHKPSNTKVDKKVEPKSCDKTHTCPPCPAPELLGGPSVFLFPPKPKDTLMISRTPEITCVVVDVSHEDPEVKFNWYVDGVEVHNAKTKPREEQYNSTYRVVSVLTFLHQDWLNGKEYKCKVSNKALPAPIEKTISKAKGQPREPQVYTLPPSRDELTKNQVSLTCLVKGFYPSDIAVEWESNGQPENNYKTTPPVLDSDGSFFLYSKLTVDKSRWQQGNVFSCSVLHEALHNHYTQKSLSLSP
light: not shown
notes: EU numbering; copies: 2 + 2
B3: IgG1-F1161 (antibody)
heavy: QVQLQESGPGLVKPSETLSLTCAVSGHSISHDHAWSWVRQPPGEGLEWIGFISYSGITNYNPSLQGRVTISRDNSKNTLYLQMNSLRAEDTAVYYCARSLARTTAMDYWGEGTLVTVSSASTKGPSVFPLAPSSKSTSGGTAALGCLVKDYFPEPVTVSWNSGALTSGVHTFPAVLQSSGLYSLSSVVTVPSSSLGTQTYICNVNHKPSNTKVDKKVEPKSCDKTHTCPPCPAPELLGGPSVFLFPPKPKDTLMISRTPEVTCVVVDVSHEDPEVKFNWYVDGVEVHNAKTKPREEQYNSTYRVVSVLTVLHQDWLNGKEYKCKVSNKALPAPVEKTISKAKGQPREPQVYTLPPSRDELTKNQVSLTCLVKGFYPSDIAVEWESNGQPENNYKTTPPVLDSDGSFFLYSKLTVDKSRWQQGNVFNCSVMHEALHYHYTQKSLSLSP
light: not shown
notes: EU numbering; copies: 2 + 2
B4: IgG1-F1160 (antibody)
heavy: QVQLQESGPGLVKPSETLSLTCAVSGHSISHDHAWSWVRQPPGEGLEWIGFISYSGITNYNPSLQGRVTISRDNSKNTLYLQMNSLRAEDTAVYYCARSLARTTAMDYWGEGTLVTVSSASTKGPSVFPLAPSSKSTSGGTAALGCLVKDYFPEPVTVSWNSGALTSGVHTFPAVLQSSGLYSLSSVVTVPSSSLGTQTYICNVNHKPSNTKVDKKVEPKSCDKTHTCPPCPAPELLGGPSVFLFPPKPKDTLMISRTPEVTCVVVDVSHEDPEVKFNWYVDGVEVHNAKTKPREEQYNSTYRVVSVLTFLHQDWLNGKEYKCKVSNKALPAPIEKTISKAKGQPREPQVYTLPPSRDELTKNQVSLTCLVKGFYPSDIAVEWESNGQPENNYKTTPPVLDSDGSFFLYSKLTVDKSRWQQGNVFNCSVMHEALHYHYTQKSLSLSP
light: not shown
notes: EU numbering; copies: 2 + 2
B5: IgG1-F1165 (antibody)
heavy: QVQLQESGPGLVKPSETLSLTCAVSGHSISHDHAWSWVRQPPGEGLEWIGFISYSGITNYNPSLQGRVTISRDNSKNTLYLQMNSLRAEDTAVYYCARSLARTTAMDYWGEGTLVTVSSASTKGPSVFPLAPSSKSTSGGTAALGCLVKDYFPEPVTVSWNSGALTSGVHTFPAVLQSSGLYSLSSVVTVPSSSLGTQTYICNVNHKPSNTKVDKKVEPKSCDKTHTCPPCPAPELLGGDSVFLFPPKPKDYLYISRTPEVTCVVVDVSHEDPEVKFNWYVDGVEVHNAKTKPREEQYNSTYRVVSVLQPLHADWLNGKEYKCKVSNKALPAPIEKTISKAKGQPREPQVYTLPPSRDELTKNQVSLTCLVKGFYPSDIAVEWESNGQPENNYKTTPPVLDSDGSFFLYSKLTVDKSRWQQGNVFSCSVMHEALHYHVTQKSLSLSP
light: not shown
notes: EU numbering; copies: 2 + 2
B6: IgG1-F1164 (antibody)
heavy: QVQLQESGPGLVKPSETLSLTCAVSGHSISHDHAWSWVRQPPGEGLEWIGFISYSGITNYNPSLQGRVTISRDNSKNTLYLQMNSLRAEDTAVYYCARSLARTTAMDYWGEGTLVTVSSASTKGPSVFPLAPSSKSTSGGTAALGCLVKDYFPEPVTVSWNSGALTSGVHTFPAVLQSSGLYSLSSVVTVPSSSLGTQTYICNVNHKPSNTKVDKKVEPKSCDKTHTCPPCPAPELLGGDSVFLFPPKPKDYLYISRTPEVTCVVVDVSHEDPEVKFNWYVDGVEVHNAKTKPREEQYNSTYRVVSVLQVLHADWLNGKEYKCKVSNKALPAPIEKTISKAKGQPREPQVYTLPPSRDELTKNQVSLTCLVKGFYPSDIAVEWESNGQPENNYKTTPPVLDSDGSFFLYSKLTVDKSRWQQGNVFSCSVMHEALHYHVTQKSLSLSP
light: not shown
notes: EU numbering; copies: 2 + 2
B7: IgG1-F1162 (antibody)
heavy: QVQLQESGPGLVKPSETLSLTCAVSGHSISHDHAWSWVRQPPGEGLEWIGFISYSGITNYNPSLQGRVTISRDNSKNTLYLQMNSLRAEDTAVYYCARSLARTTAMDYWGEGTLVTVSSASTKGPSVFPLAPSSKSTSGGTAALGCLVKDYFPEPVTVSWNSGALTSGVHTFPAVLQSSGLYSLSSVVTVPSSSLGTQTYICNVNHKPSNTKVDKKVEPKSCDKTHTCPPCPAPELLGGDSVFLFPPKPKDYLYISRTPEVTCVVVDVSHEDPEVKFNWYVDGVEVHNAKTKPREEQYNSTYRVVSVLTVLHQDWLNGKEYKCKVSNKALPAPIEKTISKAKGQPREPQVYTLPPSRDELTKNQVSLTCLVKGFYPSDIAVEWESNGQPENNYKTTPPVLDSDGSFFLYSKLTVDKSRWQQGNVFSCSVMHEALHYHVTQKSLSLSP
light: not shown
notes: EU numbering; copies: 2 + 2
B8: IgG1-F1163 (antibody)
heavy: QVQLQESGPGLVKPSETLSLTCAVSGHSISHDHAWSWVRQPPGEGLEWIGFISYSGITNYNPSLQGRVTISRDNSKNTLYLQMNSLRAEDTAVYYCARSLARTTAMDYWGEGTLVTVSSASTKGPSVFPLAPSSKSTSGGTAALGCLVKDYFPEPVTVSWNSGALTSGVHTFPAVLQSSGLYSLSSVVTVPSSSLGTQTYICNVNHKPSNTKVDKKVEPKSCDKTHTCPPCPAPELLGGDSVFLFPPKPKDYLYISRTPEVTCVVVDVSHEDPEVKFNWYVDGVEVHNAKTKPREEQYNSTYRVVSVLQVLHADWLNGKEYKCKVSNKALPAPIEKTISKAKGQPREPQVYTLPPSRDELTKNQVSLTCLVKGFYPSDIAVEWESNGQPENNYKTTPPVLDSDGSFFLYSKLTVDKSRWQQGNVFSCSVMHEALHYHYTQKSLSLSP
light: not shown
notes: EU numbering; copies: 2 + 2
B9: IgG1-F1183 (antibody)
heavy: QVQLQESGPGLVKPSETLSLTCAVSGHSISHDHAWSWVRQPPGEGLEWIGFISYSGITNYNPSLQGRVTISRDNSKNTLYLQMNSLRAEDTAVYYCARSLARTTAMDYWGEGTLVTVSSASTKGPSVFPLAPSSKSTSGGTAALGCLVKDYFPEPVTVSWNSGALTSGVHTFPAVLQSSGLYSLSSVVTVPSSSLGTQTYICNVNHKPSNTKVDKKVEPKSCDKTHTCPPCPAPELLGGPSVFLFPPKPKDTLMISRTPEVTCVVVDVSHEDPEVKFNWYVDGVEVHNAKTKPREEQYNSTYRVVSVLTVLHQDWLNGKEYKCKVSNKALPAPIEKTISKAKGQPREPQVYTLPPSRDELTKNQVSLTCLVKGFYPSDIAVAWESNGQPENNYKTTPPVLDSDGSFFLYSKLTVDKSRWQQGNVFSCSVLHEALHSHYTQKSLSLSP
light: not shown
notes: EU numbering; copies: 2 + 2

As usually defined, the Kd is the free concentration of one partner at which half of the binding sites on the other are occupied at equilibrium, for simple one-to-one binding. Higher therefore signals lower affinity.

For this assay, the target named is T1, soluble human FcRn (human, UniProt P55899 24-297; P61769 21-119).
T1 construct: Heterodimer of FcRn alpha chain and beta2-microglobulin; also called hFcRn
T1 sequence (P55899 24-297 limits assumed, chain 1 of 2): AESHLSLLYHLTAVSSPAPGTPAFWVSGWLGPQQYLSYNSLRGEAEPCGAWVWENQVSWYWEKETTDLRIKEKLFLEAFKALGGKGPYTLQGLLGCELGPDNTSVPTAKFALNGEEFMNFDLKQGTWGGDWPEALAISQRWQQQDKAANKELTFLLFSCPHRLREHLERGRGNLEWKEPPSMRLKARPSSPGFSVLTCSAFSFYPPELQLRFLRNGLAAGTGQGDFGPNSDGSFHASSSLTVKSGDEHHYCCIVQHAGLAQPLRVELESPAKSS
T1 sequence (P61769 21-119 limits assumed, chain 2 of 2): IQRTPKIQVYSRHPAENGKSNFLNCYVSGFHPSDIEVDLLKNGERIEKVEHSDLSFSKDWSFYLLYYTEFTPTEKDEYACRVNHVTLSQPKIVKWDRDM
Nature of the assay: SPR (Biacore T100), antibody captured by protein L, hFcRn as analyte, pH 7.0, 25 C.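 Note: KD calculated from fitted association and dissociation rate constants of the sensorgrams, protein L amine-coupled to the sensor chip, sodium phosphate running buffer with NaCl and Tween20.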 A general note: In SPR one partner is held on a chip, and binding of the other changes the refractive index at the surface.
Consider B1, for which the affinity, expressed as Kd, was 0.13 µM.
B2: the Kd is 0.87 µM.
For the molecule B3, binding was characterised by a dissociation constant (Kd) of 1.1 µM. This Kd and that of the molecule before are within 1.5-fold of each other.
For B4 the value was 0.29 µM; for B5, 0.016 µM.
Regarding B6, the affinity, expressed as Kd, was 0.07 µM.
As to B7, binding was characterised by a dissociation constant (Kd) of 0.34 µM. Compared with the last molecule, the Kd is about 4.9-fold higher.
B8 displayed a Kd of 0.15 µM.
For B9 the value was 1.3 µM.

These data come from patent US20140363428A1 (Chugai, published 2014).
